Results: US11618777B2, “Method of manufacturing membrane protein and utilization thereof” (priority 2015, dated 2023)

How the values were obtained:
[1] = biological target: C-terminal fragment (C-CPE) of Clostridium perfringens enterotoxin (CPE) (Clostridium perfringens, UniProt P01558); settings: read-out: KD value
[2] = biological target: T1, human claudin-4 (residue: 1 to 183) synthesized in a cell-free system (human, UniProt O14493 1-183)
T1 sequence: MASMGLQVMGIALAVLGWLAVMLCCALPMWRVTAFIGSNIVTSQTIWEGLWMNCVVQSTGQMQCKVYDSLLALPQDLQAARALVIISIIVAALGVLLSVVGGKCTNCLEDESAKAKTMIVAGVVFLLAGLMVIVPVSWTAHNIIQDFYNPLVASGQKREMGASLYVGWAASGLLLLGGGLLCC

[3] = GlcT enzyme activity (specific activity) of cell-free synthesized human GlcT; settings: GlcT produced by liposome method with porcine brain lipid mixture

B1: human claudin-4: Human claudin-4 (residue 1 to 183), 4-transmembrane tight junction protein produced by the cell-free lipid-detergent method (protein, UniProt O14493 1-183, looked up, fragment)
chain: MASMGLQVMGIALAVLGWLAVMLCCALPMWRVTAFIGSNIVTSQTIWEGLWMNCVVQSTGQMQCKVYDSLLALPQDLQAARALVIISIIVAALGVLLSVVGGKCTNCLEDESAKAKTMIVAGVVFLLAGLMVIVPVSWTAHNIIQDFYNPLVASGQKREMGASLYVGWAASGLLLLGGGLLCC
[1]
  Kd: 3.4 nM

B2: GST tag-added C-CPE (ligand)
chain: RCVLTVPSTDIEKEILDLAAATERLNLTDALNSNPAGNLYDWRSSNSYPWTQKLNLHLTITATGQKYRILASKIVDFNIYSNNFNNLVKLEQSLGDGVKDHYVDISLDAGQYVLVMKANSSYSGNYPYSILFQKF
[2]
  Kd: 3.4 nM

B3: GlcT: Human glucosylceramide synthase, estimated 3-transmembrane enzyme, produced in a cell-free system with lipids (protein, UniProt Q16739 1-394, looked up)
Ceramide glucosyltransferase: MALLDLALEGMAVFGFVLFLVLWLMHFMAIIYTRLHLNKKATDKQPYSKLPGVSLLKPLKGVDPNLINNLETFFELDYPKYEVLLCVQDHDDPAIDVCKKLLGKYPNVDARLFIGGKKVGINPKINNLMPGYEVAKYDLIWICDSGIRVIPDTLTDMVNQMTEKVGLVHGLPYVADRQGFAATLEQVYFGTSHPRYYISANVTGFKCVTGMSCLMRKDVLDQAGGLIAFAQYIAEDYFMAKAIADRGWRFAMSTQVAMQNSGSYSISQFQSRMIRWTKLRINMLPATIICEPISECFVASLIIGWAAHHVFRWDIMVFFMCHCLAWFIFDYIQLRGVQGGTLCFSKLDYAVAWFIRESMTIYIFLSALWDPTISWRTGRYRLRCGGTAEEILDV
[3]
  specificity (specific activity) relative to sample produced with GalCer (5%), cholesterol (5%), egg PC (90%): approximately 2.7 times higher
